{"source": "patent US20040002450A1", "about": "“Y17 - isolated molecules comprising epitopes containing sulfated moieties, antibodies to such epitopes, and uses thereof” (priority 2000, published 2004)", "molecules": {"B1": {"name": "Y1 scFv: fully human scFv clone binding platelets and myelogenous leukemia cells; SEQ ID NO: 25, heavy chain CDR3 SEQ ID NO: 8 (protein, listed as Homo sapiens)", "scFv": "MKYLLPTAAAGLLLLAAQPAMAEVQLVESGGGVVRPGGSLRLSCAASGFTFDDYGMSWVRQAPGKGLEWVSGINWNGGSTGYADSVKGRFTISRDNAKNSLYLQMNSLRAEDTAVYYCARMRAPVIWGQGTLVTVSRGGGGSGGGGSGGGGSSELTQDPAVSVALGQTVRITCQGDSLRSYYASWYQQKPGQAPVLVIYGKNNRPSGIPDRFSGSSSGNTASLTITGAQAEDEADYYCNSRDSSGNHVVFGGGTKLTVLGAAAEQKLISEEDLNGAA"}}, "key": {"[1]": {"system": "platelets, KG-1, Raji and T2 cells", "test": "FACS binding profile on platelets and human cell lines"}, "KG-1 cells": {"system": "KG-1 cells", "test": "FACS and binding competition on KG-1 cells (Y1 forms and multimers)", "design": "species or system human", "settings": "5 μg and 10 μg", "from_the_text": "To compare the binding of the scFv monomer (also referred to as CONY1) with the Y1 dimer, binding competition experiments were done in vitro on KG-1 cells. In addition, these experiments also compared the binding of the full Y1 IgG to the scFv Y1 monomers. To perform this study, a Y1 IgG was labeled with biotin.\nIn a preferred method, tetramers are formed via a biotin/streptavidin association. A novel fermentation construct that is capable of being enzymatically labeled with biotin (referred to herein as Y1-biotag or Y1-B) was created. A sequence that is a substrate for the BirA enzyme was added at the Y1C-terminus. The BirA enzyme adds a biotin to the lysine residue within the sequence. Y1-biotag was expressed in E. coli. The inclusion body material was isolated and refolded. The purity of the folded protein was >95%, and >100 mg were obtained from a 1-L culture (small-scale, non-optimized conditions). […] Nevertheless, this construct offered the advantage of specific biotinylation in which the binding site of the molecule remains intact. Further, each molecule is labeled by only one biotin—each molecule receives one biotin on the carboxyl end.\nLimiting labeling to one biotin/molecule in a desired location enabled production of tetramers with streptavidin. The tetramers were formed by incubating Y1-B with steptavidin-PE. […]"}, "[2]": {"system": "platelet-rich-plasma (PRP)", "test": "Ristocetin-induced aggregation of platelet-rich-plasma after scFv preincubation", "type": "cell-based, human", "settings": "for % inhibition: ristocetin", "method": "The effect of Y1 (scFv) on aggregation of platelet-rich-plasma (PRP) was tested at various concentrations of Y1. PRP was pre-incubated with Y1 scFv, Y17 scFv, or a control sTM-1cFv for 4 min at 37° C. before being exposed to ristocetin, an inducer of platelet agglutination and aggregation. A reversible inhibitory effect was observed when scFv was added to PRP prior to the addition of ristocetin, and it was dose dependent.\nBlood was collected into a tube containing 3.8% sodium citrate. Platelet-rich plasma was prepared by centrifugation at 250×g for 10 minutes.\nFor platelet aggregation studies, platelet rich plasma (PRP) and washed platelets were stirred at 500 rpm at 37° C. in whole blood Lumiaggregometer (Chronolog, Havertown, Pa.). The difference in light transmission through the platelet suspension and suspending medium was taken as 100% aggregation. The effect of Y1 on platelet aggregation was evaluated by addition of different concentration of Y1 before the addition of agonist, and the effect was recorded for four minutes."}, "glycocalicin": {"target": "T1, glycocalicin (Homo sapiens, UniProt P07359)", "T1 construct": "GC, amino acid 1 to amino acid 493 of GPIbα; made in house; host or cells: E. coli BL21 (DE3), total cell lysate", "test": "Western blot on natural versus E. coli recombinant glycocalicin", "type": "binding", "method": "The DNA fragment encoding for glycocalicin (GC, amino acid 1 to amino acid 493 of GPIbα) was cloned into an IPTG inducible prokaryotic vector cassette. E. coli (BL21 DE3) cells harboring the newly constructed plasmid were grown at 37° C. to O.D. 0.7-0.8, than at 37° C. for 3 hours for in the presence of IPTG for induction\nSDS-polyacrylamide gel loaded either with semi-purified human platelet derived glycocalicin (“GC”) or with E. coli cell lysates (“total”) derived from induced and non-induced cells were analyzed. Western blot analysis was performed with biotinylated Y1-scFv, polyclonal rabbit anti-human glycocalicin antibody, commercially available mouse anti-human CD42 monoclonal antibody (SZ2 Immunotech, PM640 Serotec, HIP 1 Pharmigen, AN51 DAKO), and polyclonal antibody against the N-terminus of GPIbα (Sc-7071, Santa Cruz)."}, "[3]": {"system": "glycocalicin, platelet lysate, KG-1 cell lysate, Raji cell lysate", "test": "Western blot on glycocalicin and cell lysates", "type": "binding, human", "method": "Antibodies against GPIbα (CD42b) recognize platelet lysate and glycocalicin and but not KG-1 cell lysate (a Y1 binding positive myeloid cell line) or Raji cell lysate (a B cell line that is negative for Y1 binding at concentrations at which KG-1 cells are positive for Y1 binding). […] (FIG. 20).\nThe nitrocellulose membrane was blocked using 5% skim milk for one hour at room temperature. The membrane was then washed 3 times for 5 minutes each with 0.05% Tween 20 in PBS at room temperature. The membrane was incubated with 5 μg/ml Y1-biotin (or 181-biotin) in 2% skim milk in PBS for one hour at room temperature. The membrane was then washed 3 times for 5 minutes each with cold 0.05% Tween 20 in PBS in the cold room (about 4 to about 10° C.). The membrane was then incubated in the cold room with a 1:1000 dilution of SAV-HRP (streptavidin-HRP) (at a final concentration of […]) in 2% skim milk, 0.05% Tween. The dilution was carried out at room temperature (about 25° C.), then the diluted SAV-HRP was cooled on ice for 10-15 minutes before use. The incubation was carried out for 1 hour with gentle shaking. After the incubation with SAV-HRP, the membrane was washed, as above. The membrane was then incubated with Super Signal mixture (Pierce) for 5 minutes as directed in the commercial protocol, then excess solution was dried. […]"}}, "data": [{"molecule": "B1", "values": [{"measurement": "binding to Raji and T2 cells", "setting": "[1]", "result": "do not bind"}, {"measurement": "competition with Y1 IgG-Biotin (50 ng)", "setting": "KG-1 cells", "result": "partially competed"}, {"measurement": "effect on ristocetin-induced platelet aggregation in PRP (in words)", "setting": "[2]; 25 μg/ml", "result": "no significant inhibition"}, {"measurement": "% inhibition", "setting": "[2]; scFv 25 μg/ml, PRP", "result": 13, "unit": "%"}, {"measurement": "% aggregation", "setting": "[2]; scFv 25 μg/ml, PRP, ristocetin = 100%", "result": 87, "unit": "%"}, {"measurement": "% inhibition", "setting": "[2]; scFv 50 μg/ml, PRP, first 4 minutes", "result": 80, "unit": "%"}, {"measurement": "recognition of natural human platelet derived and bacterial recombinant glycocalicin", "setting": "glycocalicin", "result": "recognized the natural human-derived glycocalicin, but did not recognize the bacterial derived recombinant platelet glycocalicin"}, {"measurement": "recognition of glycocalicin, platelet lysate, KG-1 and Raji cell lysate", "setting": "[3]", "result": "recognized both glycocalicin, platelet lysate, and KG-1 cells, but not Raji cell extract"}]}]}
